Data published in WO1992001059A1.

Key:
[1] = molecular target: carcinoembryonic antigen (CEA) (UniProt P06731); assay: competition RIA on CEA coated beads, transfected CHO cell supernatant
[2] = molecular target: carcinoembryonic antigen (CEA) (UniProt P06731); assay: competition RIA on CEA coated beads, transfected CHO cell supernatant; apparent A5B7 concentration divided by assembly assay result
[3] = molecular target: carcinoembryonic antigen (CEA) (UniProt P06731); assay: competition RIA, 125I-labelled A5B7 IgG1 on CEA coated beads, purified material
[4] = molecular target: carcinoembryonic antigen (CEA) (UniProt P06731); assay: competition RIA on CEA coated beads

Chain of carcinoembryonic antigen (CEA) (P06731 35-685 limits assumed): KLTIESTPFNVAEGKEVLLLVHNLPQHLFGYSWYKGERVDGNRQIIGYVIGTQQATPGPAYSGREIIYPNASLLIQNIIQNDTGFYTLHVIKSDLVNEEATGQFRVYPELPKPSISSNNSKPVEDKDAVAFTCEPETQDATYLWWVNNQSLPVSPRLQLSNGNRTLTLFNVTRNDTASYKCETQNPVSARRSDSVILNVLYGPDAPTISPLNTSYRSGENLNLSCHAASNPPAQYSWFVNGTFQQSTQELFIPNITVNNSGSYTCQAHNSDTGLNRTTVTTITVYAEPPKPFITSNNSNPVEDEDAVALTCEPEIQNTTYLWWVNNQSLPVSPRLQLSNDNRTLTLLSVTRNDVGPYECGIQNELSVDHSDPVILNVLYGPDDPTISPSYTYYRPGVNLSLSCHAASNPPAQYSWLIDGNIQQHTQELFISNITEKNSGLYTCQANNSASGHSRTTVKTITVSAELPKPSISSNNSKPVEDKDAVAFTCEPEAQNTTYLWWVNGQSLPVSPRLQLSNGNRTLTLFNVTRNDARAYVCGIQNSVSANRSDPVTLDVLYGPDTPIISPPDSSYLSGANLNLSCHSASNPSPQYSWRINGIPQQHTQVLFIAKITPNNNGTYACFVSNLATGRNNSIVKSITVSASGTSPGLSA

Question: How did the % Relative Potency [1] turn out when chimeric A5B7 IgG1 whole antibody was run?
Answer: 100%

Question: And the Specific activity [2]?
Answer: 1.17

Question: And the % Relative Potency [3]?
Answer: 100%

Question: How did the % Relative Potency [3] turn out when murine A5B7 F(ab')2 was run?
Answer: 97%

Question: Which results are given for murine A5B7 Fab' (alkylated)?
Answer: % Relative Potency [3]: 8%; fold reduced potency against murine A5B7 IgG [4]: 10 fold
